Experimental data reported in US20180305449A1 (ONCOMED PHARMACEUTICALS, published 2018).
Like-named read-outs stand apart in the source and are kept apart here.

Columns and labels:
[1] = target: T1, Recombinant human DLL4-Fc (human, UniProt Q9NR61 27-522, limits assumed); assay: SPR (Biacore 2000), human DLL4-Fc on CM5 chip; ratio of KDs against 219R45-MB-21M18
T1 construct: also called hDLL4; hDLL4-Fc; not shown: Fc portion
Description: (§1) The KDs of parental antibodies anti-VEGF 219R45 (IgG format), anti-DLL4 21R79 (IgG format), anti-DLL4 21M18 (IgG format) and bispecific antibodies 219R45-MB-21M18 and 219R45-MB-21R79 were determined using a Biacore 2000 system from Biacore LifeSciences (GE Healthcare). Recombinant human DLL4-Fc or mouse DLL4-Fc proteins were immobilized on CM5 carboxyl chips using standard amine-based chemistry (NHS/EDC) and blocked with ethanolamine Recombinant human VEGF₁₆₅ or mouse VEGF₁₆₅ were biotinylated and immobilized on streptavidin chips. The antibodies were serially diluted 2-fold from 100 nM to 0.78 nM in HBS-P (0.01M HEPES pH7.4, 0.15M NaCl, 0.005% v/v Polysorbate 20). For each antibody, all 8 dilutions were sequentially injected over a specific chip. Kinetic data were collected over time and were fit using the simultaneous global fit equation to yield affinity constants (KD values) for each bispecific antibody.

[2] = target: T2, Recombinant mouse VEGF165 (mouse, UniProt Q00731-2 27-190); assay: SPR (Biacore 2000), biotinylated mouse VEGF165 on streptavidin chip, antibody as analyte
T2 construct: also called mVEGF
T2 sequence (looked up): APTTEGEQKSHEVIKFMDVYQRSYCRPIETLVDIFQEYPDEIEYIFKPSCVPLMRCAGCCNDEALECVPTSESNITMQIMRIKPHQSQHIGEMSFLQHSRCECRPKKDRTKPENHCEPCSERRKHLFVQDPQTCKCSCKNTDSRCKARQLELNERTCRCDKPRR
Description: as §1

[3] = target: T3, Recombinant human VEGF165 (human, UniProt P15692-4 27-191); assay: SPR (Biacore 2000), biotinylated human VEGF165 on streptavidin chip, antibody as analyte
T3 construct: also called hVEGF; hVEGF165
Description: as §1

[4] = target: T4, biotin-DLL4-hFc (UniProt Q9NR61 27-522, limits assumed, biotinylated (site not stated)); assay: bispecific sandwich ELISA: antibody pre-incubated with 2 ug/ml biotin-DLL4-hFc, captured on VEGF-coated plate, detected with streptavidin-HRP
T4 construct: not shown: human Fc (hFc)
Description: (§2) FIG. 7. Bispecific antibody ELISA. Bispecific antibodies 219R45-MB-21M18, 219R45-MB-21R79, 219R45-MB-21R75, and 219R45-MB-21R83 were diluted in blocking buffer (lx PBS, 0.1% gelatin, 0.1% Polysorbate-20, pH 7.4) containing 2 μg/ml biotin-DLL4-hFc. The antibodies were serially diluted 3-fold from 500 ng/ml to 0.008 ng/ml. The antibody samples were incubated for 2 hours in blocking buffer containing the biotin-DLL4-hFc. After incubation, the antibody samples were transferred to a VEGF-coated assay plate (100 ul/well) and incubated for 2 hours. Streptavidin-HRP was added to each well and incubated for 1 hr. TMB substrate was added to the wells with a 10 minute color development and the reaction was stopped with 2M sulfuric acid. Absorbance was read at 450-650 nm and the data analyzed using the 4-parameter fit within the Softmax Pro analysis program.
as §2, with “VEGF (ATGEN, South Korea) was coated onto Nunc maxisorb plates at 2 ug/ml (100 μl/well) and incubated overnight at 2-8° C. Bispecific” for “FIG. 7. Bispecific antibody ELISA. Bispecific”, “to the” for “to a”, “Streptavidin-HRP (Jackson ImmunoResearch, West Grove, Pa.)” for “Streptavidin-HRP”, “analysis program (Molecular Devices, Sunnyvale, Calif.).” for “analysis program.”

[5] = target: T1, Recombinant human DLL4-Fc; assay: SPR (Biacore 2000), human DLL4-Fc amine-coupled on CM5 chip, antibody as analyte
Description: as §1
Several additional anti-DLL4 antibodies were identified that had binding affinities intermediate to the KDs of 21M18 and 21R79. Two of these anti-DLL4 antibodies were used to produce anti-VEGF/anti-DLL4 bispecific antibodies 219R45-MB-21R75 and 219R45-MB-21R83. Using the Biacore 2000 system as described above, the KDs of the bispecific antibodies 219R45-MB-21R75 and 219R45-MB-21R83 to human DLL4 were determined.

[6] = target: T1, Recombinant human DLL4-Fc; assay: as above; remark: listed apart in the source
Description: as §1

[7] = target: T4, biotin-DLL4-hFc; assay: Bispecific bridging ELISA: antibody pre-incubated with biotin-DLL4-hFc, captured on VEGF (ATGEN)-coated plate, streptavidin-HRP; potency relative to a reference anti-VEGF/anti-DLL4 bispecific antibody
Description: as §2, with “VEGF (ATGEN, South Korea) was coated onto Nunc maxisorb plates at 2 ug/ml (100 μl/well) and incubated overnight at 2-8° C. Bispecific” for “FIG. 7. Bispecific antibody ELISA. Bispecific”, “to the” for “to a”, “Streptavidin-HRP (Jackson ImmunoResearch, West Grove, Pa.)” for “Streptavidin-HRP”, “analysis program (Molecular Devices, Sunnyvale, Calif.).” for “analysis program.”

[8] = target: T4, biotin-DLL4-hFc; assay: Bispecific bridging ELISA (VEGF-coated plate, biotin-DLL4-hFc detection); ratio against 219R45-MB-21M18
Description: as §2, with “VEGF (ATGEN, South Korea) was coated onto Nunc maxisorb plates at 2 ug/ml (100 μl/well) and incubated overnight at 2-8° C. Bispecific” for “FIG. 7. Bispecific antibody ELISA. Bispecific”, “to the” for “to a”, “Streptavidin-HRP (Jackson ImmunoResearch, West Grove, Pa.)” for “Streptavidin-HRP”, “analysis program (Molecular Devices, Sunnyvale, Calif.).” for “analysis program.”

T4 sequence (Q9NR61 27-522 limits assumed): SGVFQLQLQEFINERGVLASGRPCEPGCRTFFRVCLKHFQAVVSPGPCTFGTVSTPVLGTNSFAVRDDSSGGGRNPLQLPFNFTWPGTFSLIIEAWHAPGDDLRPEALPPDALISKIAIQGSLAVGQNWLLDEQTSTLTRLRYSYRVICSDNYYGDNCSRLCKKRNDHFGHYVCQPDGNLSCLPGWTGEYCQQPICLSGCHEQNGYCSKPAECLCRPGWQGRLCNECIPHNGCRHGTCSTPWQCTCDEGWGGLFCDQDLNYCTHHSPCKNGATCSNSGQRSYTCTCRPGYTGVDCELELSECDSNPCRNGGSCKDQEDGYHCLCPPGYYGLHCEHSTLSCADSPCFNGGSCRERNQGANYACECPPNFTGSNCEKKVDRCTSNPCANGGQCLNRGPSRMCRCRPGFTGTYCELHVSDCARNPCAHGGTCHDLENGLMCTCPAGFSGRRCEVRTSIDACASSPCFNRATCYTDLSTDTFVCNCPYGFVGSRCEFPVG
T1 sequence (Q9NR61 27-522 limits assumed): as above

- fold stronger binding than 219R45-MB-21M18 [1]: ~30 fold
- Kd [2]: 12.5 nM
- Kd [3]: 0.68 nM
- EC50 (read off the curve) [4]: ~0.6 ng/mL
- Kd [5]: 0.53 nM
- Kd [6]: 0.53 nM
- Relative Potency (%) [7]: 501%
- fold more potent than 219R45-MB-21M18 [8]: ~7 fold
B1: anti-VEGF/anti-DLL4 bispecific antibody 219R45-MB-21R79 (bispecific antibody, human IgG2)
heavy 1: QVQLVQSGAEVKKPGASVKVSCKASGYTFTNYWMHWVRQAPGQGLEWMGDINPSNGRTSYKEKFKRRVTLSVDKSSSTAYMELSSLRSEDTAVYFCTIHYDDKYYPLMDYWGQGTLVTVSSASTKGPSVFPLAPCSRSTSESTAALGCLVKDYFPEPVTVSWNSGALTSGVHTFPAVLQSSGLYSLSSVVTVPSSNFGTQTYTCNVDHKPSNTKVDKTVERKCCVECPPCPAPPVAGPSVFLFPPKPKDTLMISRTPEVTCVVVDVSHEDPEVQFNWYVDGVEVHNAKTKPREEQFNSTFRVVSVLTVVHQDWLNGKEYKCKVSNKGLPAPIEKTISKTKGQPREPQVYTLPPSREKMTKNQVSLTCLVKGFYPSDIAVEWESNGQPENNYKTTPPMLKSDGSFFLYSKLTVDKSRWQQGNVFSCSVMHEALHNHYTQKSLSLSPGK
heavy 2: QVQLVQSGAEVKKPGASVKISCKASGYSFTAYYIHWVKQAPGQGLEWIGYIANYNRATNYNQKFKGRVTFTTDTSTSTAYMELRSLRSDDTAVYYCARDYDYDVGMDYWGQGTLVTVSSASTKGPSVFPLAPCSRSTSESTAALGCLVKDYFPEPVTVSWNSGALTSGVHTFPAVLQSSGLYSLSSVVTVPSSNFGTQTYTCNVDHKPSNTKVDKTVERKCCVECPPCPAPPVAGPSVFLFPPKPKDTLMISRTPEVTCVVVDVSHEDPEVQFNWYVDGVEVHNAKTKPREEQFNSTFRVVSVLTVVHQDWLNGKEYKCKVSNKGLPAPIEKTISKTKGQPREPQVYTLPPSREEMTKNQVSLTCLVEGFYPSDIAVEWESNGQPENNYKTTPPMLDSDGSFFLYSELTVDKSRWQQGNVFSCSVMHEALHNHYTQKSLSLSPGK
light: DIVMTQSPDSLAVSLGERATISCRASESVDNYGISFMKWFQQKPGQPPKLLIYAASNQGSGVPDRFSGSGSGTDFTLTISSLQAEDVAVYYCQQSKEVPWTFGGGTKVEIKRTVAAPSVIFPPSDEQLKSGTASVVCLLNNFYPREAKVQWKVDNALQSGNSQESVTEQDSKDSTYSLSSTLTLSKADYEKHKVYACEVTHQGLSSPVTKSFNRGEC
notes: Monovalent/bispecific IgG2 heterodimer with charge-modified CH3 domains and two identical light chains
